Measurements reported in publication PMC10551642, “Functional plasticity in chromosome–microtubule coupling on the evolutionary time scale” (Life Science Alliance, 2023).

Molecular target: the molecule itself
Test: negative stain electron microscopy; Dam1 complex-MT reaction mix adsorbed on glow-discharged grids, washed with 25 mM HEPES pH 7.4, 500 mM NaCl, 1 mM EDTA, stained with 0.7% uranyl formate; rings of the complex around MTs

B1: S. cerevisiae Dam1 complex containing Dad2-FL (DASH^WT) (complex)
chain 1: MMASTSNDEEKLISTTDKYFIEQRNIVLQEINETMNSILNGLNGLNISLESSIAVGREFQSVSDLWKTLYDGLESLSDEAPIDEQPTLSQSKTK
chain 2: MDSIDEQIAIKRKELQSLQKITSLTDGLKIQLTELNEQIKEMGMNADSVAQLMNNWDSIINNISQASLGLLQYAEGDYEIGPWKDSKKKESEQSNETGLEAQENDKNDEDNDEDEDLVPLPETMVRIRVDGNE
chain 3: MEHNLSPLQQEVLDKYKQLSLDLKALDETIKELNYSQHRQQHSQQETVSPDEILQEMRDIEVKIGLVGTLLKGSVYSLILQRKQEQESLGSNSK
chain 4: MENPHEQVQANILSRIIGNVKRLNESVAILNQELVTINNRNKNLEIMGAICDNYHSSVQFNLEATNNKKPPL
chain 5: MSEDKAKLGTTRSATEYRLSIGSAPTSRRSSMGESSSLMKFADQEGLTSSVGEYNENTIQQLLLPKIRELSDSIITLDSNFTRLNFIHESLADLNESLGSLLYGIMSNSWCVEFSQAPHDIQDDLIAIKQLKSLEDEKNNLVMELSNMERGIKRKKDEQGENDLAKASQNKQFNQPLFPSSQVRKYRSYDNRDKRKPSKIGNNLQVENEEDYEDDTSSEASFVLNPTNIGMSKSSQGHVTKTTRLNNNTNSKLRRKSILHTIRNSIASGADLPIENDNVVNLGDLHPNNRISLGSGAARVVNGPVTKNRNSMFSGRAERKPTESRHSVAKKTEKKINTRPPFR
chain 6: MSEQSQLDDSTIDKLIPQIFNEMRSNLNNTTNKFPKSTGGGASDNISANSNSIRSFNSITTQSLLKESESLDKITAMIKNVTAALKNNLPVYVNQVHEVCKSTNSILDSWINIHSQAGYIHKLMSDQTYLKLINDRLHNENVNTNDEDGSTLHNVIALKKKEILDLRQKLENRKGEKDAAPAKPPNQGLNPRYGVQSGRRPVPSAGISNNGRVRKTHVPASKRPSGIPRVTNRWTKPTASSSRKMFR
chain 7: MDSASKEETLEKLDQEITVNLQKIDSNLSFCFHKITQDIIPHVATYSEICERIMDSTEWLGTMFQETGLVNLQANAAAPVGNAPVKSLVSNNVGIFPTSAEEASRQSQTDNGPNEADSAVHVNRDVHSMFNNDSIDDFHTANITSTGQILKLPDSSDEDTGSEAVPSREQTDLTGEGHGGADDEQDESTIQRQSRKRKISLLLQQQYGSSSSMVPSPIVPNKMRKQLAHEEHINNDGDNDDENSNNIESSPLKQGHHHPKGQADDNNEGPDEEESTKEVPKPGTIIHFSTNR
chain 8: MNANKQRQYNQLAHELRELQTNLQETTKQLDIMSKQCNENLVGQLGKVHGSWLIGSYIYYMEQMLGKTQ
chain 9: MTDALEQSVLALEGTVSVLKDSVESLKCANEPSTNLASTMLQTKRVFRLVPEYDVERSKLDLIEEVEPLVRTLGDKLRKSMGRMQRELDTLQQTYELNDLRLKKNISMDDDDALNSPDMGQEYEGRDADDVVMMASSTNEELEELKKLKEKKKQLENKLEILKQK
chain 10: MGESLDRCIDDINRAVDSMSTLYFKPPGIFHNAILQGASNKASIRKDITRLIKDCNHDEAYLLFKVNPEKQSVSRRDGKEGVFDYVIKRDTDMKRNRRLGRPGEKPIIHVPKEVYLNKDRLDLNNKRRRTATTSGGGLNGFIFDTDLIGSSVISNSSSGTFKALSAVFKDDPQIQRLLYALENGSVLMEEESNNQRRKTIFVEDFPTDLILKVMAEVTDLWPLTEFKQDYDQLYHNYEQLSSKLRFIKKEVLLQDDRLKTMSQYHPSSSHDVAKIIRKEKDEIRRLEMEIANLQE
notes: Dad1, S. cerevisiae, subunit of the Dam1 (DASH) complex; Dad2, S. cerevisiae, subunit of the Dam1 (DASH) complex; Dad2-FL; Dad3, S. cerevisiae, subunit of the Dam1 (DASH) complex; Dad4, S. cerevisiae, subunit of the Dam1 (DASH) complex; Dam1, S. cerevisiae, subunit of the Dam1 (DASH) complex; Duo1, S. cerevisiae, subunit of the Dam1 (DASH) complex; Ask1, S. cerevisiae, subunit of the Dam1 (DASH) …
- binding result: binds
